Target: Met receptor on Madine-Darby canine kidney (MDCK) cells (canine (MDCK cells), UniProt Q75ZY9 25-1382)
Experiment: cell-based or functional assay

B1: recombinant soluble Aras-4 (ligand)
chain: YAEGQGKRRNTIHEFKKSAKTTLIKIDPALRIKTEKANTADQCANRCTRSKGLPFTCKAFVFDKARKRCLWFPFNSMSSGVKKEFGHEFDLYENKAYIRDCIIGRGRNYRGTVSITKSGIKCQPWSAMIPHEHSFLPSSYRGEDLRENYCRNPRGEEGGPWCYTSDPEVRYEVCDIPQCSEVE
- inhibition of HGF-induced activation of Met, MDCK cells: ~5 fold lower concentration
